Test results: paper PMC6325134 (Nature Communications, 2019)

B1: Fab 10E8 3R conjugated with KK114 (Fab, V domains shown)
VH: EVQLVESGGGLVKPGGSLRLSCSASGFDFDNAWMTWVRQPPGKGLEWVGRITGPGEGWSVDYAAPVEGRFTISRLNSINFLYLEMNNLRMEDSGLYFCARTGKYYDFWSGYPPGEEYFQDWGRGTLVTVSS
VL: SYELTQETGVSVALGRTVTITCRGDSLRRHYASWYQKKPGQAPILLFYGKRNRPSGVPDRFSGSARGNRASLTISGAQAEDDAEYYCSSRDKSGSRLSVFGGGTKLTVL
notes: also called 3R mutant
B2: Fab 10E8 3R-WG conjugated with KK114 (Fab, V domains shown)
VH: EVQLVESGGGLVKPGGSLRLSCSASGFDFDNAWMTWVRQPPGKGLEWVGRITGPGEGWSVDYAAPVEGRFTISRLNSINFLYLEMNNLRMEDSGLYFCARTGKYYDFGSGYPPGEEYFQDWGRGTLVTVSS
VL: SYELTQETGVSVALGRTVTITCRGDSLRRHYASWYQKKPGQAPILLFYGKRNRPSGVPDRFSGSARGNRASLTISGAQAEDDAEYYCSSRDKSGSRLSVFGGGTKLTVL
notes: also called 3R/WG mutant

Biological target: T1, HIV-1 envelope glycoprotein Env_(JR-CSF) on intact virions (HIV-1 group M subtype B, isolate JR-CSF, UniProt P20871)
T1 construct: also called JR-CSF Env-WT; JR-CSF virions; source: 293T cells transfected with the Env(-) pCHIV plasmid and the full-length JR-CSF Env clone; on pseudovirions purified by ultracentrifugation through a 20% sucrose cushion
Experiment: STED microscopy of fluorescent Fab on single virions
Conditions: one partner purified

Binder | binding result
B1 | binds
B2 | binds
